Consider two substances from patent US20260042850A1.

This assay addresses Insulin. Description: polyreactivity ELISA on insulin (and dsDNA). Background: In an ELISA, binding on a coated surface is turned into a signal by an enzyme label.

Insulin, sequence (P01308 25-54, chain 1 of 2): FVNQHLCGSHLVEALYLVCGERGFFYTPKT
Insulin, sequence (P01308 90-110, chain 2 of 2): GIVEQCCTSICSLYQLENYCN

Substance Bococizumab analogue (antibody) registered a reactivity score of over 15.
Briakinumab analogue (antibody): the reactivity score is over 15.
